Experimental data taken from patent US20140087995A1 (published 2014).
Numbered stars: 1 amine (or outer) side, 2 acyl side, 3 side chain; on linkers, the order of the positions; unused ones are H or OH. Bridge positions count the residues as written; N and C are the ends. Side chains are listed from the residue outwards. Ends that are not written are not given here. * marks the point of attachment. C20 diacid = O=C(O)CCCCCCCCCCCCCCCCCCC(=O)*; γGlu = O=C(O)[C@H](CCC(=O)[*:2])N[*:1]; AEEA = NCCOCCOCC(=O)O

T1: rat calcitonin receptor (rat, UniProt P32214 25-516)
T1 construct: whole, on cells; Membranes of BHK tk'ts 13 cells transiently transfected with the rat calcitonin receptor; also called rCTR; rat calcitonin (a) receptor
T1 sequence (looked up): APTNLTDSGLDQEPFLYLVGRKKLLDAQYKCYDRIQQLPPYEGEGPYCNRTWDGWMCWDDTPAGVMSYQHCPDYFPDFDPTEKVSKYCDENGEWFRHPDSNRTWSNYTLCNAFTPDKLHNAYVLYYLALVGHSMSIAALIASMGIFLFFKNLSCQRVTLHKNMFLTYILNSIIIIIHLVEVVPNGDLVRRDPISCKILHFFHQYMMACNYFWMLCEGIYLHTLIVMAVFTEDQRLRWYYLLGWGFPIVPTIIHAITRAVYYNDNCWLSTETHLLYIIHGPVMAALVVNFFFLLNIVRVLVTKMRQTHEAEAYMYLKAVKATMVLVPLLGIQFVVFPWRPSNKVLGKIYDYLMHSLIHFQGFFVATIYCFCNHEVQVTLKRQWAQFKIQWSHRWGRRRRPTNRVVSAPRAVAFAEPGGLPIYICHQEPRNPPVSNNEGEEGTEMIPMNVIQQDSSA

T2: rat amylin receptor (rat calcitonin receptor + rat RAMP 3) (rat, UniProt P32214 25-516; Q9JJ73 23-147)
T2 construct: whole, on cells; Membranes of BHK tk'ts 13 cells transiently transfected with the rat calcitonin receptor and rat RAMP 3; also called rAmylin-R; rat amylin 3(a) receptor
T2 sequence (looked up) 1: T1 sequence (looked up)
T2 sequence (looked up) 2: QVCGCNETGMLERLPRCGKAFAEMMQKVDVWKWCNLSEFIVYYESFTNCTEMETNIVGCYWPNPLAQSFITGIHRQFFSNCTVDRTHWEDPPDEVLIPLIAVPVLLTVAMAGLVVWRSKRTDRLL

T3: human calcitonin receptor (human, UniProt P30988 25-474)
T3 construct: whole, on cells; Membranes of a BHK tk'ts 13 cell line stably transfected with the human calcitonin receptor; also called hCTR; hCT
T3 sequence (looked up): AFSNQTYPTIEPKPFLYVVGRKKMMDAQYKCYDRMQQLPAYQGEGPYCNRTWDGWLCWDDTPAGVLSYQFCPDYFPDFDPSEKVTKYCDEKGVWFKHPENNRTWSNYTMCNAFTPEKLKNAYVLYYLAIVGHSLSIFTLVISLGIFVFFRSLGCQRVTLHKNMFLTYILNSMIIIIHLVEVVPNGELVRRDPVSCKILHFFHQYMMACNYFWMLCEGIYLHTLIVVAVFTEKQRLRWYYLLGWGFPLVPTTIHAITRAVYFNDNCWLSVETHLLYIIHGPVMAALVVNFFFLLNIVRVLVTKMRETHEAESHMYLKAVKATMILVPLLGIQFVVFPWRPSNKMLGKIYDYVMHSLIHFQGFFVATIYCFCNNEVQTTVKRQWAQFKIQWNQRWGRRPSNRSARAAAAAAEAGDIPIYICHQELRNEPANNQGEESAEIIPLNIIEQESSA

B1: N{Alpha-1}-[(4S)-4-carboxy-4-(19-carboxynonadecanoylamino)butanoyl]-[Glu14,Arg17,Pro21,Pro27,Lys34]-h-amylin (peptide)
peptide: {C20 diacid-γGlu}-KCNTATCATQRLAEFLRHSSPNFGAIPSSTNVGKNTY-NH2
modifications: disulfide 2-7
SMILES: CC[C@H](C)[C@H](NC(=O)[C@H](C)NC(=O)CNC(=O)[C@H](Cc1ccccc1)NC(=O)[C@H](CC(N)=O)NC(=O)[C@@H]1CCCN1C(=O)[C@H](CO)NC(=O)[C@H](CO)NC(=O)[C@H](Cc1c[nH]cn1)NC(=O)[C@H](CCCNC(=N)N)NC(=O)[C@H](CC(C)C)NC(=O)[C@H](Cc1ccccc1)NC(=O)[C@H](CCC(=O)O)NC(=O)[C@H](C)NC(=O)[C@H](CC(C)C)NC(=O)[C@H](CCCNC(=N)N)NC(=O)[C@H](CCC(N)=O)NC(=O)[C@@H](NC(=O)[C@H](C)NC(=O)[C@@H]1CSSC[C@H](NC(=O)[C@H](CCCCN)NC(=O)CC[C@H](NC(=O)CCCCCCCCCCCCCCCCCCC(=O)O)C(=O)O)C(=O)N[C@@H](CC(N)=O)C(=O)N[C@@H]([C@@H](C)O)C(=O)N[C@@H](C)C(=O)N[C@@H]([C@@H](C)O)C(=O)N1)[C@@H](C)O)C(=O)N1CCC[C@H]1C(=O)N[C@@H](CO)C(=O)N[C@@H](CO)C(=O)N[C@H](C(=O)N[C@@H](CC(N)=O)C(=O)N[C@H](C(=O)NCC(=O)N[C@@H](CCCCN)C(=O)N[C@@H](CC(N)=O)C(=O)N[C@H](C(=O)N[C@@H](Cc1ccc(O)cc1)C(N)=O)[C@@H](C)O)C(C)C)[C@@H](C)O
notes: modifications are with respect to human amylin; also called compound 36
B2: N^ε-[(4S)-4-carboxy-4-(19-carboxynonadecanoylamino)butanoyl]Lys[Arg1,Arg17,Pro21,Pro27,His35]-h-amylin (peptide)
peptide: K([γGlu-C20 diacid])RCNTATCATQRLANFLRHSSPNFGAIPSSTNVGSHTY-NH2
modifications: disulfide 3-8; N-terminus assumed
SMILES: CC[C@H](C)[C@H](NC(=O)[C@H](C)NC(=O)CNC(=O)[C@H](Cc1ccccc1)NC(=O)[C@H](CC(N)=O)NC(=O)[C@@H]1CCCN1C(=O)[C@H](CO)NC(=O)[C@H](CO)NC(=O)[C@H](Cc1c[nH]cn1)NC(=O)[C@H](CCCNC(=N)N)NC(=O)[C@H](CC(C)C)NC(=O)[C@H](Cc1ccccc1)NC(=O)[C@H](CC(N)=O)NC(=O)[C@H](C)NC(=O)[C@H](CC(C)C)NC(=O)[C@H](CCCNC(=N)N)NC(=O)[C@H](CCC(N)=O)NC(=O)[C@@H](NC(=O)[C@H](C)NC(=O)[C@@H]1CSSC[C@H](NC(=O)[C@H](CCCNC(=N)N)NC(=O)[C@@H](N)CCCCNC(=O)CC[C@H](NC(=O)CCCCCCCCCCCCCCCCCCC(=O)O)C(=O)O)C(=O)N[C@@H](CC(N)=O)C(=O)N[C@@H]([C@@H](C)O)C(=O)N[C@@H](C)C(=O)N[C@@H]([C@@H](C)O)C(=O)N1)[C@@H](C)O)C(=O)N1CCC[C@H]1C(=O)N[C@@H](CO)C(=O)N[C@@H](CO)C(=O)N[C@H](C(=O)N[C@@H](CC(N)=O)C(=O)N[C@H](C(=O)NCC(=O)N[C@@H](CO)C(=O)N[C@@H](Cc1c[nH]cn1)C(=O)N[C@H](C(=O)N[C@@H](Cc1ccc(O)cc1)C(N)=O)[C@@H](C)O)C(C)C)[C@@H](C)O
notes: modifications are with respect to human amylin; also called compound 44
B3: N^-1-[(4S)-4-carboxy-4-(19-carboxynonadecanoylamino)butanoyl]-Gly[Arg1,Arg17,Pro21,Pro27,His35]-h-amylin (peptide)
peptide: {C20 diacid-γGlu}-GRCNTATCATQRLANFLRHSSPNFGAIPSSTNVGSHTY-NH2
modifications: disulfide 3-8
SMILES: CC[C@H](C)[C@H](NC(=O)[C@H](C)NC(=O)CNC(=O)[C@H](Cc1ccccc1)NC(=O)[C@H](CC(N)=O)NC(=O)[C@@H]1CCCN1C(=O)[C@H](CO)NC(=O)[C@H](CO)NC(=O)[C@H](Cc1c[nH]cn1)NC(=O)[C@H](CCCNC(=N)N)NC(=O)[C@H](CC(C)C)NC(=O)[C@H](Cc1ccccc1)NC(=O)[C@H](CC(N)=O)NC(=O)[C@H](C)NC(=O)[C@H](CC(C)C)NC(=O)[C@H](CCCNC(=N)N)NC(=O)[C@H](CCC(N)=O)NC(=O)[C@@H](NC(=O)[C@H](C)NC(=O)[C@@H]1CSSC[C@H](NC(=O)[C@H](CCCNC(=N)N)NC(=O)CNC(=O)CC[C@H](NC(=O)CCCCCCCCCCCCCCCCCCC(=O)O)C(=O)O)C(=O)N[C@@H](CC(N)=O)C(=O)N[C@@H]([C@@H](C)O)C(=O)N[C@@H](C)C(=O)N[C@@H]([C@@H](C)O)C(=O)N1)[C@@H](C)O)C(=O)N1CCC[C@H]1C(=O)N[C@@H](CO)C(=O)N[C@@H](CO)C(=O)N[C@H](C(=O)N[C@@H](CC(N)=O)C(=O)N[C@H](C(=O)NCC(=O)N[C@@H](CO)C(=O)N[C@@H](Cc1c[nH]cn1)C(=O)N[C@H](C(=O)N[C@@H](Cc1ccc(O)cc1)C(N)=O)[C@@H](C)O)C(C)C)[C@@H](C)O
notes: modifications are with respect to human amylin; also called compound 47
B4: N^α1-[2-[2-[2-[[2-[2-[2-[[(4S)-4-carboxy-4-(19-carboxynonadecanoylamino)butanoyl]amino]ethoxy]ethoxy]acetyl]amino]ethoxy]ethoxy]acetyl]-[Arg17,Pro21,Pro27]-h-am … (peptide)
peptide: KCNTATCATQRLANFLRHSSPNFGAIPSSTNVGSNTY
modifications: C20 diacid-gGlu-2xOEG on the alpha amino group of the N-terminal residue (Lys 1); disulfide bridge Cys2-Cys7; C-terminal amide
notes: modifications are with respect to human amylin; also called compound 24
B5: N^ε1-[2-[2-[2-[[(4S)-4-carboxy-4-(19-carboxynonadecanoylamino)butanoyl]amino]ethoxy]ethoxy]acetyl]-[Arg17,Pro21,Pro27]-h-amylin (peptide)
peptide: K([AEEA-γGlu-C20 diacid])CNTATCATQRLANFLRHSSPNFGAIPSSTNVGSNTY-NH2
modifications: disulfide 2-7; N-terminus assumed
SMILES: CC[C@H](C)[C@H](NC(=O)[C@H](C)NC(=O)CNC(=O)[C@H](Cc1ccccc1)NC(=O)[C@H](CC(N)=O)NC(=O)[C@@H]1CCCN1C(=O)[C@H](CO)NC(=O)[C@H](CO)NC(=O)[C@H](Cc1c[nH]cn1)NC(=O)[C@H](CCCNC(=N)N)NC(=O)[C@H](CC(C)C)NC(=O)[C@H](Cc1ccccc1)NC(=O)[C@H](CC(N)=O)NC(=O)[C@H](C)NC(=O)[C@H](CC(C)C)NC(=O)[C@H](CCCNC(=N)N)NC(=O)[C@H](CCC(N)=O)NC(=O)[C@@H](NC(=O)[C@H](C)NC(=O)[C@@H]1CSSC[C@H](NC(=O)[C@@H](N)CCCCNC(=O)COCCOCCNC(=O)CC[C@H](NC(=O)CCCCCCCCCCCCCCCCCCC(=O)O)C(=O)O)C(=O)N[C@@H](CC(N)=O)C(=O)N[C@@H]([C@@H](C)O)C(=O)N[C@@H](C)C(=O)N[C@@H]([C@@H](C)O)C(=O)N1)[C@@H](C)O)C(=O)N1CCC[C@H]1C(=O)N[C@@H](CO)C(=O)N[C@@H](CO)C(=O)N[C@H](C(=O)N[C@@H](CC(N)=O)C(=O)N[C@H](C(=O)NCC(=O)N[C@@H](CO)C(=O)N[C@@H](CC(N)=O)C(=O)N[C@H](C(=O)N[C@@H](Cc1ccc(O)cc1)C(N)=O)[C@@H](C)O)C(C)C)[C@@H](C)O
notes: modifications are with respect to human amylin; also called compound 41
B6: N^ε1-[2-[2-[2-(19-carboxynonadecanoylamino)ethoxy]ethoxy]acetyl]-[Arg17,Pro21,Pro27]-h-amylin (peptide)
peptide: K([AEEA-C20 diacid])CNTATCATQRLANFLRHSSPNFGAIPSSTNVGSNTY-NH2
modifications: disulfide 2-7; N-terminus assumed
SMILES: CC[C@H](C)[C@H](NC(=O)[C@H](C)NC(=O)CNC(=O)[C@H](Cc1ccccc1)NC(=O)[C@H](CC(N)=O)NC(=O)[C@@H]1CCCN1C(=O)[C@H](CO)NC(=O)[C@H](CO)NC(=O)[C@H](Cc1c[nH]cn1)NC(=O)[C@H](CCCNC(=N)N)NC(=O)[C@H](CC(C)C)NC(=O)[C@H](Cc1ccccc1)NC(=O)[C@H](CC(N)=O)NC(=O)[C@H](C)NC(=O)[C@H](CC(C)C)NC(=O)[C@H](CCCNC(=N)N)NC(=O)[C@H](CCC(N)=O)NC(=O)[C@@H](NC(=O)[C@H](C)NC(=O)[C@@H]1CSSC[C@H](NC(=O)[C@@H](N)CCCCNC(=O)COCCOCCNC(=O)CCCCCCCCCCCCCCCCCCC(=O)O)C(=O)N[C@@H](CC(N)=O)C(=O)N[C@@H]([C@@H](C)O)C(=O)N[C@@H](C)C(=O)N[C@@H]([C@@H](C)O)C(=O)N1)[C@@H](C)O)C(=O)N1CCC[C@H]1C(=O)N[C@@H](CO)C(=O)N[C@@H](CO)C(=O)N[C@H](C(=O)N[C@@H](CC(N)=O)C(=O)N[C@H](C(=O)NCC(=O)N[C@@H](CO)C(=O)N[C@@H](CC(N)=O)C(=O)N[C@H](C(=O)N[C@@H](Cc1ccc(O)cc1)C(N)=O)[C@@H](C)O)C(C)C)[C@@H](C)O
notes: modifications are with respect to human amylin; also called compound 43

What follows are binders tested against T1, rat calcitonin receptor (assay: IC50 at rCTR divided by IC50 at rAmylin-R (reference)).

Row | Ratio rCT/rAmylin binding | Binder
1 | 32.4 | B1
2 | 53.3 | B2
3 | 84.3 | B3
4 | 116 | B4
5 | 54 | B5
6 | 69.1 | B6

Each binder was assayed against T2, rat amylin receptor (rat calcitonin …) (assay: SPA competition vs 125I-rat amylin, membranes with rat CTR + rat RAMP3 (Assay VI)).

Row | IC50 | Binder
7 | 1.86 nM | B1
8 | 0.369 nM | B2
9 | 0.203 nM | B3
10 | 3.01 nM | B4
11 | 1.37 nM | B5
12 | 0.11 nM | B6

Each binder was assayed against T3, human calcitonin receptor (assay: IC50 at hCTR divided by IC50 at hAmylin-R (reference)).
Summary of the method: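 Membranes (35 ng/μL final) + SPA beads, 50 mM Hepes pH 7.4 buffer with 1 mM CaCl2, 5 mM MgCl₂, 0.1% OA, 0.02% Tween20; 120 min, 25° C, shaking; centrifuged, counted; IC₅₀ by one-site binding competition.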

Row | Ratio hCT/hAmylin binding | Binder
13 | 15.7 | B1
14 | 17.7 | B2
15 | 44.9 | B3
16 | 90 | B4
17 | 49.9 | B5
18 | 34.7 | B6

These binders were tested against T1, rat calcitonin receptor (assay: SPA competition vs 125I-calcitonin, membranes with rat CTR (Assay VIII)).

Row | IC50 | Binder
19 | 60.1 nM | B1
20 | 19.6 nM | B2
21 | 17.1 nM | B3
22 | 350 nM | B4
23 | 74.1 nM | B5
24 | 7.6 nM | B6
